Data from patent publication US20150023979A1 (VALDOSPAN, published 2015).

T1: HPV39 E7 protein, recombinant (His-TEV-E7 fusion from E. coli) (Human Papilloma Virus type 39 (HPV39), UniProt P24837 1-109, CKII phosphorylation of the consensus site serine in the antigen preparation of Example 2)
T1 construct: mature; also called VE7_HPV39; not shown: N-terminal 6x Histidine tag and TEV cleavage site of the vector
T1 sequence: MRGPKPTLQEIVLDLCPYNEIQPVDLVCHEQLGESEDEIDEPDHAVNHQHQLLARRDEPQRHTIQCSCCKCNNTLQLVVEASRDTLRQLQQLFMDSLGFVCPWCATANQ

T2: HPV56 E7 protein, recombinant (His-TEV-E7 fusion from E. coli) (Human Papilloma Virus type 56 (HPV56), UniProt P36833 1-105, CKII phosphorylation of the consensus site serines in the antigen preparation of Example 2)
T2 construct: mature; also called VE7_HPV56; not shown: N-terminal 6x Histidine tag and TEV cleavage site of the vector
T2 sequence: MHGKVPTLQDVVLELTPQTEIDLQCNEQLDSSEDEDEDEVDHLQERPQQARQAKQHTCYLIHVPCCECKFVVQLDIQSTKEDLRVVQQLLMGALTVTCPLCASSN

T3: HPV45 E7 protein, recombinant (His-TEV-E7 fusion from E. coli) (Human Papilloma Virus type 45 (HPV45), UniProt P21736 1-106, CKII phosphorylation of the consensus site serines in the antigen preparation of Example 2; biotin on primary amines in the SPR assay)
T3 construct: mature; also called VE7_HPV45; not shown: N-terminal 6x Histidine tag and TEV cleavage site of the vector
T3 sequence: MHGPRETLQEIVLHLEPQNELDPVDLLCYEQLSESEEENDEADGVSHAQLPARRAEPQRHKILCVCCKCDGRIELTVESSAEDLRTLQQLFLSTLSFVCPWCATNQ

T4: HPV18 E7 protein, recombinant (His-TEV-E7 fusion from E. coli) (Human Papilloma Virus type 18 (HPV18), UniProt P06788 1-105, CKII phosphorylation of the consensus site serines in the antigen preparation of Example 2; biotin on primary amines in the SPR assay)
T4 construct: mature; also called VE7_HPV18; not shown: N-terminal 6x Histidine tag and TEV cleavage site of the vector
T4 sequence: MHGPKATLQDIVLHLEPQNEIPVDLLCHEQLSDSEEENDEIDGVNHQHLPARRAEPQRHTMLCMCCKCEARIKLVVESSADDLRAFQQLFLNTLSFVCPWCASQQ

T5: HPV31 E7 protein, recombinant (His-TEV-E7 fusion from E. coli) (Human Papilloma Virus type 31 (HPV31), UniProt P17387 1-98, CKII phosphorylation of the consensus site serines in the antigen preparation of Example 2)
T5 construct: mature; also called VE7_HPV31; not shown: N-terminal 6x Histidine tag and TEV cleavage site of the vector
T5 sequence: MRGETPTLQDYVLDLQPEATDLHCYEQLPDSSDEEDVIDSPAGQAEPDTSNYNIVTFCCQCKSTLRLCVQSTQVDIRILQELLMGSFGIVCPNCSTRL

T6: HPV58 E7 protein, recombinant (His-TEV-E7 fusion from E. coli) (Human Papilloma Virus type 58 (HPV58), UniProt P26557 1-98, CKII phosphorylation of the consensus site serines in the antigen preparation of Example 2)
T6 construct: mature; also called VE7_HPV58; not shown: N-terminal 6x Histidine tag and TEV cleavage site of the vector
T6 sequence: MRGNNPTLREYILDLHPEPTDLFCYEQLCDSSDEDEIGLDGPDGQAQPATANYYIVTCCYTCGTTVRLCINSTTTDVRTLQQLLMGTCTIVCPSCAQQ

B1: ACAB452 (antibody, IgG1, V domains shown)
VH: DVQLQESGPGLVKPSQSLSLTCTVTGYSITSDYAWNWIRQFPGNKLEWVGYITYSGSTNYNPSLKSRISITRDTSKNQFFLQFNSVTSEDTATYFCARSWFAYWGQGTLVTVSS
VL: DIVMTQTPLSLPVSLGDQASISCRSSQSLVHSNGNTYLHWFLQKPGQSPKLLIYKVSNRFSGVPDRFSGSGSGTDFTLKISRVEAEDLGVYFCLQSAHVPLTFGAGTKLELTR
notes: also called HPV45E7 IgG1 antibody ACAB452
B2: ACAB164 (antibody, V domains shown)
VH: EVQLQQSGLALVQPGASVKISCRTSGYTFTEYTLHWVKQSHGKSLEWIGGINPNNGSPKYNQKFKGKATLTVDKSSSTAYMELRSLTSEDSAVYYCARLDINSFFDYWGQGTTLTVSS
VL: DVVMTQSPLSLPVSLGDQASISCRSSQSLVHSNGNTYLQWYLQKPGQSPKLLIYKLSNRFSGVPDRFSGSGSGTDFTLKISRVEAEDLGVYSCSQTTHVPPTFGGGTKLEIKR
notes: the printed entries run on into the first residues of the constant domains; also called HPV16E7 IgG2a antibody ACAB164

Tests used:
[1] = molecular target: T1, HPV39 E7 protein, recombinant …; assay: ELISA and dot-blot, semiquantitative crossreactivity (++ strong positive)
Experimental: (§1) Using ELISA and dot-blot techniques semiquantitative crossreactivities of the isolated mAbs was analysed. For this various mAbs were tested against the accepted high risk species.

[2] = molecular target: T2, HPV56 E7 protein, recombinant …; assay: as above
Experimental: as §1

[3] = molecular target: T3, HPV45 E7 protein, recombinant …; assay: SPR (BIAcore X100), biotin-E7 on streptavidin SA chip, antibody as analyte, bivalent analyte fit, 25 C
[4] = molecular target: T4, HPV18 E7 protein, recombinant …; assay: as above
[5] = molecular target: T5, HPV31 E7 protein, recombinant …; assay: ELISA, HPV31E7 immobilised on polystyrene plates in 3-fold dilution steps, detected with ACAB452; no concentrations printed on the X axis
[6] = molecular target: T6, HPV58 E7 protein, recombinant …; assay: ELISA and dot-blot, semiquantitative crossreactivity (++ strong positive)
Experimental: as §1

Row | Binder | binding result [1] | binding result [2] | Kd [3] [nM] | kon [3] [M⁻¹ s⁻¹] | kon [4] [M⁻¹ s⁻¹] | binding result [5] | binding result [6]
1 | B1 | binds | binds | 10.6 | 52100 | 94700 | binds | 
2 | B2 |  |  |  |  |  |  | binds
